The Kd is the constant that tells how readily two partners part at equilibrium.

Data set [1] concerns HeLa cells expressing the HaloEnzyme. The format is cell-based. The conditions noted are these: 1 μM HT-labeled peptide, 4 hours. As to the method:
HeLa cells expressing the HaloEnzyme (a modified bacterial haloalkane dehalogenase, further modified to target to the cytosol-facing side of the outer mitochondrial membrane) were grown in 24 well dishes until ˜60% confluent. […] After incubation, cells were rinsed and incubated with Opti-MEM for 30 minutes, and were then incubated with 5 μM HT-TAMRA ligand (Promega G8251) for 30 minutes. An additional control with no HT-TAMRA was tested. After this incubation, cells were rinsed with PBS and then imaged on a fluorescent microscope in FITC/green (all cells) and TRITC/red (HT-TAMRA accumulation) channels.
FIG. 28 illustrates cell-by-cell quantitation of average fluorescence in the red channel of cells in a CAPA.

The target in data set [2] is T1, biotinylated TEAD (Homo sapiens, UniProt P28347).
T1 construct: GST; made in house; host or cells: Hi5 insect cells (baculovirus, BacMagic, pIEX-BAC3)
T1 sequence (P28347 209-426): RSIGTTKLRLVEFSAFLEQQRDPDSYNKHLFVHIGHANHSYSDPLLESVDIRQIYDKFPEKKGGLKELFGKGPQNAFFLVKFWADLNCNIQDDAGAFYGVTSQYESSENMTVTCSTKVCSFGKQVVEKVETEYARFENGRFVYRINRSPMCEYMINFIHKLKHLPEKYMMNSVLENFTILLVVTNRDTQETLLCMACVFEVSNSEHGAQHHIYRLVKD
The data set is described as follows: Surface plasmon resonance (SPR) binding of soluble peptides to captured biotinylated TEAD. The settings on record: biotinylated TEAD immobilized on an SPR chip, read-out: dissociation constant (KD). (In SPR one partner is held on a chip, and binding of the other changes the refractive index at the surface.)

The nature of data set [3]: SYPRO Orange thermal shift (melting) assay. It counts as physicochemical. The settings on record: heating from 20° C. to 95° C. As to the method:
Thermal Shift Assay. Protein melting temperature (Tm) determination can be performed by monitoring protein unfolding using SYPRO Orange dye (Molecular Probes). In brief, 0.1 mg/mL protein sample in 20 μL total volume PBS buffer can be mixed with 2 μL of 10×SYPRO Orange dye. Dye intercalation into the hydrophobic protein core following protein unfolding was assayed using the C1000 Touch Thermal Cycler with CFX96 Deep Well Real-Time System (BioRad). Samples were heated from 20° C. to 95° C. with stepwise increments of 0.5° C. per minute and a 5 see hold step for every point, followed by fluorescence reading. Tm were calculated by analyzing the derivatives of Relative florescence Units (RFU).
Protein secondary structures were assessed using Circular Dichroism (CD). CD spectra were measured with a Jasco J-720W spectropolarimeter using a 1.0 mm path length cell. Protein samples in 10 mM phosphate buffer (pH=7.4) were at 25-30 μM protein concentration. Samples were analyzed at wavelength ranges of 260-190 nM. Data were expressed in terms of relative ellipticity; (mdeg). […] Samples were heated from 20° C. to 95° C. with stepwise increments of 0.5° C. per minute and a 5 sec hold step for every point, followed by fluorescence reading. Tm was calculated by analyzing the derivatives of Relative florescence Units (RFU). […]

B1: GSGDCLPHLKRCKADNDCCGKKCKRRGTNAEKRCREPKSSDKTHTPDEYIERAKECCKKQDIQCCLRIFDESKDPNVMLICLFCW (peptide)
chain: GSGDCLPHLKRCKADNDCCGKKCKRRGTNAEKRCREPKSSDKTHTPDEYIERAKECCKKQDIQCCLRIFDESKDPNVMLICLFCW
On to B1, for which the cell penetration entry in data set [1] is on record as “high cell penetration”.

B2: Siderocalin-fused YAP: YAP (50-171) produced as a soluble siderocalin fusion (protein)
chain: QDSTSDLIPAPPLSKVPLQQNFQDNQFQGKWYVVGLAGNAILREDKDPQKMYATIYELKEDKSYNVTSVLFRKKKCDYWIRTFVPGCQPGEFTLGNIKSYPGLTSYLVRVVSTNYNQHAMVFFKKVSQNREYFKITLYGRTKELTSELKENFIRFSKSLGLPENHIVFPVPIDQCIDGAGHQIVHVRGDSETDLEALFNAVMNPKTANVPQTVPMRLRKLPDSFFKPPEPKSHSRQASTDAGTAGALTPQHVRAHSSPASLQLGAVSPGTLTPTGVVSGPAATPTAQHLRQSSFEIPDDV
modifications: left off: small tags and cut ends
In the case of B2, the Kd in data set [2] stood at 570 nM.

B3: Human siderocalin: Human siderocalin (HuScn), control protein in SYPRO Orange melting assay (protein, UniProt P80188 21-198, looked up)
Neutrophil …: QDSTSDLIPAPPLSKVPLQQNFQDNQFQGKWYVVGLAGNAILREDKDPQKMYATIYELKEDKSYNVTSVLFRKKKCDYWIRTFVPGCQPGEFTLGNIKSYPGLTSYLVRVVSTNYNQHAMVFFKKVSQNREYFKITLYGRTKELTSELKENFIRFSKSLGLPENHIVFPVPIDQCIDG
Regarding B3, the melting temperature in data set [3] was 79 °C.

For the origin of these results see patent US11548923B2, “Peptide compositions and methods of use thereof for disrupting TEAD interactions” (Fred Hutchinson Cancer Center, priority 2017, dated 2023).
